According to the supplement of paper PMC10126150:
± gives the standard deviation of the averaged measurements.

tested on: ATP; test: switch fluorescence ratio, 500 uM ATP over buffer (Cy3 cluster intensity, sum of 5 cycles each) (fold (ratio)); higher = stronger signal-on switching upon ATP binding; sequences stand for … in TCGTCGGCAGCGTCAGATGTGTATAAGAGACAGTTTTTTTTTTTTTTTTTTTTTTTTT…TC; details: aptamer strand: ATP DNA aptamer (quencher-CACCTGGGGGAGTATTGCGGAGGAAGG + anchor), 100 nM annealed; ATP concentration: 500 uM
Outline: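 Clusters carrying Cy3-labelled switching strands on a modified Illumina MiSeq flow-cell were annealed to 100 nM quencher-labelled ATP aptamer and imaged in selection buffer. They were imaged again after 15 min with 500 uM ATP at 22 °C, over five buffer/ATP cycles with NaOH stripping and re-annealing in between. For each cluster, the fluorescence ratio is the summed Cy3 intensity of the target cycles divided by that of the buffer cycles, averaged per switch-domain sequence. Clusters outside 100-1000 RFU were left out.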
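Also: ATP exposure 15 min at 22 °C before imaging.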

| Sequence | switch fluorescence ratio |
| --- | --- |
| CCATGGCTGG | 1 ± 0.016 |
| AATGGGGTAA | 0.995 ± 0.014 |
| TGAATGACGG | 0.993 ± 0.026 |
| AGGGGGAGTG | 0.987 ± 0.036 |
| TCTCGCCTTT | 0.975 ± 0.066 |
| CTTAGAAAGC | 1.05 ± 0.022 |
| CTGATCATTC | 1.04 ± 0.045 |
| AAGAGGCGGA | 1 ± 0.026 |
| AGTTTTGCGC | 0.972 ± 0.034 |
| AGGGATGAGA | 0.9965 ± 0.0024 |
| ATTTTTTCAG | 1.03 ± 0.014 |
| AGGGCAGGAC | 1.41 ± 0.024 |
| TTATAATTGA | 1.02 ± 0.031 |
| AAAAGTGGGA | 1.03 ± 0.031 |
| AGGAGAGCTT | 1.02 ± 0.012 |
| CGGAAATTGG | 0.982 ± 0.012 |
| GAAGAACTGG | 0.991 ± 0.054 |
| GACGGAAGCA | 1.38 ± 0.11 |
| TTTTAAAAGA | 0.995 ± 0.027 |
| CAGGGCAGCC | 1.01 ± 0.03 |
| TTACATTTAT | 1.023 ± 0.0083 |
| CCAAAAGTAT | 1.03 ± 0.081 |
| TTCAGGACTC | 0.973 ± 0.045 |
| TGCATGATTG | 0.967 ± 0.02 |
| GGATTAAAAT | 0.997 ± 0.028 |

| Sequence | switch fluorescence ratio |
| --- | --- |
| CATAGCAAGG | 1.66 ± 0.099 |
| CAACCCATCT | 0.992 ± 0.042 |
| TGGGTTCGTA | 0.994 ± 0.031 |
| AAGGGGTTTC | 0.9746 ± 0.0067 |
| GTTTCGGGTG | 1.64 ± 0.84 |
| TGAACCAAGC | 1.08 ± 0.011 |
| TATGTAGGGC | 1.02 ± 0.05 |
| TACAGGCGCT | 0.994 ± 0.015 |
| GCGTTGTTGT | 0.981 ± 0.02 |
| GGCGATGTAT | 0.967 ± 0.0097 |
| TTACGGGTGG | 1.01 ± 0.044 |
| CGATTAAGGT | 1.02 ± 0.043 |
| ATGGGGGTCC | 1.01 ± 0.068 |
| CTTAAAGTGC | 1.05 ± 0.069 |
| CGGGGCTATT | 0.999 ± 0.03 |
| AGTGGAGCGG | 0.995 ± 0.016 |
| CGGGGGGTCT | 0.999 ± 0.04 |
| ATACACAATT | 1.08 ± 0.054 |
| AAGGGGTTGA | 1.01 ± 0.023 |
| AAAATTAGGT | 0.9779 ± 0.0093 |
| TGGGAGGTCG | 1.09 ± 0.03 |
| AATGTGACAT | 0.982 ± 0.033 |
| TATGATATCC | 0.9783 ± 0.0089 |
| GCATTGGTCA | 1.027 ± 0.0076 |
| GAGAGTTTAA | 1.013 ± 0.0051 |

| Sequence | switch fluorescence ratio |
| --- | --- |
| AGACATGGGT | 1.02 ± 0.033 |
| CGCTTAATTG | 1.01 ± 0.051 |
| TGGTGGGGTA | 0.998 ± 0.022 |
| CGTAAAATCG | 0.995 ± 0.042 |
| GGGTTATTGG | 0.991 ± 0.04 |
| ATATAGGGGC | 1.02 ± 0.046 |
| CTGGGGGTAT | 1 ± 0.03 |
| ATCGCGGGTT | 0.99 ± 0.05 |
| ATGGATATGG | 1 ± 0.026 |
| GGATAAACGG | 1.03 ± 0.082 |
| ATTTGAATTG | 1.02 ± 0.03 |
| GTGAAGAGGG | 0.9977 ± 0.0056 |
| GCTTGGCAGT | 1.03 ± 0.018 |
| GCGGTTGGGG | 1.01 ± 0.018 |
| ATCATGCCTA | 0.989 ± 0.033 |
| GTTAGGGGTG | 1.02 ± 0.023 |
| GATGCGATGT | 1.18 ± 0.036 |
| CAGTGGAGTG | 0.98561 ± 8.7e-05 |
| AGTTAGTCTG | 1.01 ± 0.04 |
| TGAATTTAGA | 0.986 ± 0.025 |
| ACGGGGCATT | 1 ± 0.043 |
| GGGTTGATCG | 0.9875 ± 0.0046 |
| GCGCATTTAG | 1.15 ± 0.066 |
| TTTTTCTACC | 1.035 ± 0.0091 |
| TAGATTGTAA | 1.05 ± 0.11 |

| Sequence | switch fluorescence ratio |
| --- | --- |
| ACATACATTG | 1.27 ± 0.061 |
| GGGCGTTATG | 1.0238 ± 0.00033 |
| GTTTTTTAGC | 0.991 ± 0.069 |
| CTGATGGGTG | 1.01 ± 0.013 |
| TGGTGTTTT | 0.998 ± 0.024 |
| TTGATCAGTA | 1.02 ± 0.02 |
| GCAAGAACTA | 1.042 ± 0.0016 |
| AAATCGTAGT | 0.9885 ± 0.0069 |
| AAATTTAGTT | 1.017 ± 0.006 |
| TTCGTCGGTA | 1.09 ± 0.15 |
| ACTGGTATAA | 0.989 ± 0.015 |
| GGGTTTAGAC | 0.982 ± 0.032 |
| TTGTTAGTGG | 1.01 ± 0.031 |
| CTGGCGGAAA | 1.05 ± 0.093 |
| GGGACATTTT | 1.026 ± 0.0086 |
| CGGTAGGGTA | 0.991 ± 0.026 |
| TAGGGGACAA | 1 ± 0.035 |
| TATTTCATTT | 1.06 ± 0.072 |
| TCGTGTTTTT | 1.01 ± 0.013 |
| TACATAAAAC | 1.011 ± 0.0025 |
| GCGGTTTGAC | 1.03 ± 0.018 |
| CAGTGGGGAC | 1.03 ± 0.055 |
| GCATTTTACA | 1 ± 0.013 |
| TAGGTGTTGC | 1 ± 0.023 |
| GAGTGGGGTA | 1 ± 0.011 |
